Earlier results in article PMC3728333, “Development of an Epidermal Growth Factor Derivative with EGFR Blocking Activity” (PLoS ONE, 2013).

Assays:
[1] = test system: EGFR-positive breast cancer; conditions: ref [44], [45]
Excerpt: (§1) Moreover, EGFt could also be used as a targeted toxin delivery agent. In this respect, we are currently developing ^111In–DTPA–EGFt as a potential Auger electron-emitting radiotherapeutic for EGFR-positive breast cancer.

[2] = test system: EGFR-positive breast cancer cells
Excerpt: as §1

B1: ^111In-DTPA-hEGF: ^111In-DTPA-hEGF, Kd value obtained from previous work (conjugate, UniProt P01133 23-1207, looked up)
Pro-epidermal growth factor: PQHWSCPEGTLAGNGNSTCVGPAPFLIFSHGNSIFRIDTEGTNYEQLVVDAGVSVIMDFHYNEKRIYWVDLERQLLQRVFLNGSRQERVCNIEKNVSGMAINWINEEVIWSNQQEGIITVTDMKGNNSHILLSALKYPANVAVDPVERFIFWSSEVAGSLYRADLDGVGVKALLETSEKITAVSLDVLDKRLFWIQYNREGSNSLICSCDYDGGSVHISKHPTQHNLFAMSLFGDRIFYSTWKMKTIWIANKHTGKDMVRINLHSSFVPLGELKVVHPLAQPKAEDDTWEPEQKLCKLRKGNCSSTVCGQDLQSHLCMCAEGYALSRDRKYCEDVNECAFWNHGCTLGCKNTPGSYYCTCPVGFVLLPDGKRCHQLVSCPRNVSECSHDCVLTSEGPLCFCPEGSVLERDGKTCSGCSSPDNGGCSQLCVPLSPVSWECDCFPGYDLQLDEKSCAASGPQPFLLFANSQDIRHMHFDGTDYGTLLSQQMGMVYALDHDPVENKIYFAHTALKWIERANMDGSQRERLIEEGVDVPEGLAVDWIGRRFYWTDRGKSLIGRSDLNGKRSKIITKENISQPRGIAVHPMAKRLFWTDTGINPRIESSSLQGLGRLVIASSDLIWPSGITIDFLTDKLYWCDAKQSVIEMANLDGSKRRRLTQNDVGHPFAVAVFEDYVWFSDWAMPSVMRVNKRTGKDRVRLQGSMLKPSSLVVVHPLAKPGADPCLYQNGGCEHICKKRLGTAWCSCREGFMKASDGKTCLALDGHQLLAGGEVDLKNQVTPLDILSKTRVSEDNITESQHMLVAEIMVSDQDDCAPVGCSMYARCISEGEDATCQCLKGFAGDGKLCSDIDECEMGVPVCPPASSKCINTEGGYVCRCSEGYQGDGIHCLDIDECQLGEHSCGENASCTNTEGGYTCMCAGRLSEPGLICPDSTPPPHLREDDHHYSVRNSDSECPLSHDGYCLHDGVCMYIEALDKYACNCVVGYIGERCQYRDLKWWELRHAGHGQQQKVIVVAVCVVVLVMLLLLSLWGAHYYRTQKLLSKNPKNPYEESSRDVRSRRPADTEDGMSSCPQPWFVVIKEHQDLKNGGQPVAGEDGQAADGSMQPTSWRQEPQLCGMGTEQGCWIPVSSDKGSCPQVMERSFHMPSYGTQTLEGGVEKPHSLLSANPLWQQRALDPPHQMELTQ
modifications: Pro-epidermal growth factor 111In-DTPA
tumour growth inhibition in vivo [1]: tumour growth-inhibition in vivo
cytotoxic effects in vitro [2]: potent cytotoxic effects in vitro
